{"source": "patent US20210041163A1", "about": "(Hoffmann-La Roche, published 2021)", "biological_target": "T1, human neonatal Fc receptor (FcRn), FcRn beta-2-microglobulin complex (human, UniProt P55899 24-297; P61769 21-119)", "T1 construct": "also called human FcRn", "T1 sequence (P55899 24-297 limits assumed, chain 1 of 2)": "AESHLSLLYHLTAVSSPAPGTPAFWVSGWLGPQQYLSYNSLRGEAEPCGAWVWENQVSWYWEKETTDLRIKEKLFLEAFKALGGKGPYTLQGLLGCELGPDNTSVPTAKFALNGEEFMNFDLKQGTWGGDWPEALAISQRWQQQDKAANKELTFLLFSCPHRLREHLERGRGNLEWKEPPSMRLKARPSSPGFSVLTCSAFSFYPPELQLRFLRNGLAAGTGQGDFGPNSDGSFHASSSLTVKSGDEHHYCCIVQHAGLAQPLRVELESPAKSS", "T1 sequence (P61769 21-119 limits assumed, chain 2 of 2)": "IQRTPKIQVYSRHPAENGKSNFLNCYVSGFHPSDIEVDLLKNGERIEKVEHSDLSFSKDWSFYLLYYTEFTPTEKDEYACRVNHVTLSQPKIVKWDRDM", "assay": "SPR-based binding assay, relative to the reference antibody", "data": [{"binder": "anti-digoxygenin antibody variant 7 (LC-G57R and LC-S60K) (antibody, human IgG1, kappa, name in Kabat numbering, Variant of m1) heavy: not shown light: DIQMTQSPSSLSASVGDRVTITCRASQDIKNYLNWYQQKPGKAPKLLIYYSSTLLSRVPKRFSGSGSGTDFTLTISSLQPEDFATYYCQQSITLPPTFGGGTKVEIKRRTVAAPSVFIFPPSDEQLKSGTASVVCLLNNFYPREAKVQWKVDNALQSGNSQESVTEQDSKDSTYSLSSTLTLSKADYEKHKVYACEVTHQGLSSPVTKSFNRGEC", "values": [{"measurement": "relative SPR binding", "result": 161, "unit": "%"}]}]}
